Measured values taken from US20190263932A1 (Eli Lilly, published 2019).
Positions count from the first letter of the chain named.

T1: Rabbit TrkA Extracellular Domain (33-414) (rabbit)
T1 construct: SPR analyte; not shown: C-terminal polyhistidine tag (unknown length)
T1 chain: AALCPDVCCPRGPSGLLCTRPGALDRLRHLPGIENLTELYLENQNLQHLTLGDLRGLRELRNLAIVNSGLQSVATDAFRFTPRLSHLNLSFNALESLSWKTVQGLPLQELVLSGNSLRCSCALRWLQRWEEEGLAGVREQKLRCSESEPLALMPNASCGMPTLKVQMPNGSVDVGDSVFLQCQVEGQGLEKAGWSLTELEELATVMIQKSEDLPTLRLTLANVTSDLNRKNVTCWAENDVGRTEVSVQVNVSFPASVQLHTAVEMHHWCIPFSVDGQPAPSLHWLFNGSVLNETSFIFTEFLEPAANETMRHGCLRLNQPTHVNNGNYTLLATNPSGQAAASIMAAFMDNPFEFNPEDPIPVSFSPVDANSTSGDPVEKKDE

B1: mAb A (antibody, human IgG4 S228P, kappa, F234A L235A, V domains shown)
VH: EVQLVESGGGLVKPGGSLRLSCAASGFTFSGVSINWVRQAPGKGLEWVSSETTSSGTIYYADSVKGRFTISRDNAKNSLYLQMNSLRAEDTAVYYCARSYYYGMDVWGQGTTVTVSS
VL: DIVMTQTPLSSPVTLGQPASISCRSSQSLVHRNGNTYLSWLQQRPGQPPRLLIYKISNRFSGVPDRFSGSGAGTDFTLKISRVEAEDVGVYYCMQARQFPLTFGGGTKVEIKR
notes: Human IgG4PAA/Kappa
B2: mAb C (antibody, human IgG4 S228P, kappa, F234A L235A)
heavy: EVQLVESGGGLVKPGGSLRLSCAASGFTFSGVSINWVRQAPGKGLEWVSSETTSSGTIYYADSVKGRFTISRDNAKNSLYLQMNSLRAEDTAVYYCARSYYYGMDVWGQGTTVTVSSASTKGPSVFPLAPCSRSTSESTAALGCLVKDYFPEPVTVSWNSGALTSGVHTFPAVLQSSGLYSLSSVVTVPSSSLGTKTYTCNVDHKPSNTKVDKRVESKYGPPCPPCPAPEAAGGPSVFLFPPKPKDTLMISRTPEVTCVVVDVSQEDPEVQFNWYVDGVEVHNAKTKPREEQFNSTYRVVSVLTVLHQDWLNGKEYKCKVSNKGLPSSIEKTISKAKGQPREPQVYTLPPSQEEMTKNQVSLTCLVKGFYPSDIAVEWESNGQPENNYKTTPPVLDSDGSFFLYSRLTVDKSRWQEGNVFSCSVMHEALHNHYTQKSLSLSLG
light: DIVMTQTPLSSPVTLGQPASISCRSSQSLVHRQGNTYLSWLQQRPGQPPRLLIYKISNRFSGVPDRFSGSGAGTDFTLKISRVEAEDVGVYYCMQARQFPLTFGGGTKVEIKRTVAAPSVFIFPPSDEQLKSGTASVVCLLNNFYPREAKVQWKVDNALQSGNSQESVTEQDSKDSTYSLSSTLTLSKADYEKHKVYACEVTHQGLSSPVTKSFNRGEC
notes: Human IgG4PAA/Kappa
B3: mAb B (antibody, human IgG4 S228P, kappa, F234A L235A)
heavy: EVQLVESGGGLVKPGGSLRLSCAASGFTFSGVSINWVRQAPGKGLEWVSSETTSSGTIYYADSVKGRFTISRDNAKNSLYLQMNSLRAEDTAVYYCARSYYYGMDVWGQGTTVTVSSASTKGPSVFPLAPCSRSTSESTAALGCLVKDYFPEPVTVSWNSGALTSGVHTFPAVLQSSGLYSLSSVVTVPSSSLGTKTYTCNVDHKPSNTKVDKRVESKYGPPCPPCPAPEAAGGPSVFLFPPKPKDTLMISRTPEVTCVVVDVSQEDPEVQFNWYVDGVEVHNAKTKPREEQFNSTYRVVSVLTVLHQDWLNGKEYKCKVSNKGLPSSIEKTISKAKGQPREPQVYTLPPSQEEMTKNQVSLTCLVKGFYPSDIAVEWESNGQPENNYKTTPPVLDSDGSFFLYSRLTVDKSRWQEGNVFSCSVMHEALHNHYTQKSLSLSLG
light: B2 light with Q33A
notes: Human IgG4PAA/Kappa

target: T2, recombinant human TrkA protein (human, UniProt P04629-2 34-407, limits assumed); test: NGF-blocking ELISA on coated human TrkA, 100 nM btNGF; mAb 20 nM
T2 sequence (P04629 other isoform, or with tags, fused parts or gaps limits assumed): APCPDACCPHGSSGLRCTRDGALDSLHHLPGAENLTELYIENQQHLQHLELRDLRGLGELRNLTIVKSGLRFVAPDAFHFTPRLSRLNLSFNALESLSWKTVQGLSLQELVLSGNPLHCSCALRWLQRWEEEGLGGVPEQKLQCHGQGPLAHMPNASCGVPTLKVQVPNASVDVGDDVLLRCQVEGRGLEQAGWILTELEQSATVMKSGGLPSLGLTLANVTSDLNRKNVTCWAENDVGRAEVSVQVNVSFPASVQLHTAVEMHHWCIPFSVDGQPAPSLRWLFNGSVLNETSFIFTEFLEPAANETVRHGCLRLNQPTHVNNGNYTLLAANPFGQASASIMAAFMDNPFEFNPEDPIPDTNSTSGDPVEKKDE

Absorbance 450 nm	Binder
0.2	B1
0.15	B2
0.15	B3

Target: T1, Rabbit TrkA Extracellular Domain …
Test: SPR, mAb captured on Protein A chip, 37 C
Experimental: (§1) The binding kinetics and affinity of exemplified antibodies to human, cynomolgus monkey, rat, mouse, and rabbit TrkA are determined as described below using a surface plasmon resonance assay on a BIACORE™ 8K instrument (GE Healthcare). Two different isoforms of human TrkA (isoform 1 and isoform 2) are evaluated along with human TrkB and human TrkC. […] All FC2 on all eight channels are set to capture approximately 89 response units (RU) of antibody at a flow rate of 10 μL/min. The antibody sample is prepared at 1 μg/mL by dilution into the running buffer. […] Before the analysis cycle, the chip is regenerated with 3 injections of glycine (pH ˜1.5) at 100 μL/min for a contact time of 15 seconds on FC1 and FC2 in order to clean the surface of the chip.

Kd	koff	kon	Binder
2.9 nM	0.00061 s⁻¹	210000 M⁻¹ s⁻¹	B1
4.7 nM	0.0011 s⁻¹	220000 M⁻¹ s⁻¹	B2
5 nM	0.0011 s⁻¹	220000 M⁻¹ s⁻¹	B3

target: T3, Rat TrkA Extracellular Domain (33-411) (rat, UniProt P35739 33-417); test: SPR, mAb captured on Protein A chip, 37 C
T3 construct: SPR analyte
Experimental: as §1

T3 sequence (P35739 other isoform, or with tags, fused parts or gaps): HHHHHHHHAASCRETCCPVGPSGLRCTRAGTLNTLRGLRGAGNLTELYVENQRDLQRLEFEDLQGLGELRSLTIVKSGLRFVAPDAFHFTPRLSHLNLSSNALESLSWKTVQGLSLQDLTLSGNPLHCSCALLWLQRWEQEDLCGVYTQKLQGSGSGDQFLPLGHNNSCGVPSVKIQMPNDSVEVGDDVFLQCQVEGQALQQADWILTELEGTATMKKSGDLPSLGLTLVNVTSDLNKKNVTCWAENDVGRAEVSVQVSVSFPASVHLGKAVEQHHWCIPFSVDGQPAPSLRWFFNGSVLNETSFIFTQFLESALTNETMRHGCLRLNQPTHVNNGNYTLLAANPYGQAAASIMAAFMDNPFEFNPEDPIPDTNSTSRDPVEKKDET

Kd	koff	kon	Binder
5.1 nM	0.00069 s⁻¹	140000 M⁻¹ s⁻¹	B1
9 nM	0.0012 s⁻¹	130000 M⁻¹ s⁻¹	B2
9.1 nM	0.0012 s⁻¹	130000 M⁻¹ s⁻¹	B3

target: T2, recombinant human TrkA protein; test: NGF-blocking ELISA on coated human TrkA, 100 nM btNGF; mAb 0.08 nM
Experimental: (§2) Each row of a 96-well high-binding clear-bottom microtiter plate (Microlon, #655061) was coated overnight at 4° C. with 100 μL/well of recombinant human TrkA protein, diluted to 2 μg/mL in phosphate buffered saline, pH 7.2 (PBS). The next day, the coating solution was removed, and the plate was blocked with 150 μL of Casein-PBS (Thermo Scientific, #37528) for 1 hour at 25° C. with gentle shaking. The plate was then washed three times with PBS supplemented with 0.05% Tween20 (PBST). A two-fold dilution series of exemplified antibodies, along with IgG4 and IgG1 isotype control antibodies, was generated starting at 20 nM in Casein-PBS. 100 μL of the each dilution series sample was added to a well for 30 min at 37° C. with gentle shaking. The plate was then washed three times with PBST. […] The plate was then washed three times with PBST. A 1:3500 dilution of a 1 mg/mL stock solution of streptavidin-HRP (Thermo Scientific, #21130) in Casein-PBS was prepared and […] was added to each well for 20 min at 37° C. with gentle shaking. The plate was washed three times with PBST. […] The reaction was stopped by addition of 100 μL of 1M H₃PO₄ to each well. The absorbance at 450 nm (Abs450) was measured using a SpectraMax 340PC plate reader (Molecular Devices).

Absorbance 450 nm	Binder
1.03	B1
0.92	B2
0.75	B3

target: T2, recombinant human TrkA protein; test: NGF-blocking ELISA on coated human TrkA, 100 nM btNGF; mAb 1.25 nM
Experimental: as §2

Absorbance 450 nm	Binder
0.26	B1
0.16	B2
0.17	B3

target: T4, rat TrkA receptor expressed in transfected HEK293 cells (rat, UniProt P35739 33-799); test: cell-based or functional assay
T4 sequence (P35739 33-799): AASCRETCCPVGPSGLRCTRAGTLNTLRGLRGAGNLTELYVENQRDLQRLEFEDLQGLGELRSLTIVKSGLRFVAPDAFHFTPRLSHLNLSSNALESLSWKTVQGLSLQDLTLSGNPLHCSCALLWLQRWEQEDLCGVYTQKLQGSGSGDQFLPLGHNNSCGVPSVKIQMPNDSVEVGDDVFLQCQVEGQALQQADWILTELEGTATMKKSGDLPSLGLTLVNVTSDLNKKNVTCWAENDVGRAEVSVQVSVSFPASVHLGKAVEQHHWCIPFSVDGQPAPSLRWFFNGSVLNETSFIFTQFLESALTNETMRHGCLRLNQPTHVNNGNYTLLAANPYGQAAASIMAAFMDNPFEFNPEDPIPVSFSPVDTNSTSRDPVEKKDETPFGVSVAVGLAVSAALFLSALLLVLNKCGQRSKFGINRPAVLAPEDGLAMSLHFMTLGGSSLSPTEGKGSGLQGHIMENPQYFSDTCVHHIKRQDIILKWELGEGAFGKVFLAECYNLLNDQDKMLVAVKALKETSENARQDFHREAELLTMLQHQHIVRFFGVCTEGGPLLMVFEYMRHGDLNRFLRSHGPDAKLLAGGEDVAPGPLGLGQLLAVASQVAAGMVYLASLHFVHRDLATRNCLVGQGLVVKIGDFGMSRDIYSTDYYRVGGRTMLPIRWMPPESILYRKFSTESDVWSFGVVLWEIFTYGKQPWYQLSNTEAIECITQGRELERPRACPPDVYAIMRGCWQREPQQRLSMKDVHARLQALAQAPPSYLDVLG

% Max stimulation, pTrkA	EC50 (nM), pTrkA	pTrkA counts per second, 0.1 pM mAb, no NGF	pTrkA counts per second, 1 pM mAb, no NGF	pTrkA counts per second, 10 pM mAb, no NGF	pTrkA counts per second, 100 pM mAb, no NGF	pTrkA counts per second, 1 nM mAb, no NGF	pTrkA counts per second, 10 nM mAb, no NGF	pTrkA counts per second, 100 nM mAb, no NGF	pTrkA counts per second, 1 uM mAb, no NGF	Binder
18%	0.88 nM	171000 counts per second	174000 counts per second	227000 counts per second	203000 counts per second	442000 counts per second	640000 counts per second	572000 counts per second	493000 counts per second	B1
50%	0.21 nM	571000 counts per second	613000 counts per second	664000 counts per second	922000 counts per second	1.54e+06 counts per second	1.69e+06 counts per second	1.77e+06 counts per second	1.63e+06 counts per second	B2
38%	0.98 nM	748000 counts per second	844000 counts per second	638000 counts per second	758000 counts per second	1.4e+06 counts per second	2.1e+06 counts per second	2.08e+06 counts per second	1.86e+06 counts per second	B3

target: T2, recombinant human TrkA protein; test: NGF-blocking ELISA on coated human TrkA, 100 nM btNGF
Experimental: as §2

IC50	Binder
0.34 nM	B1
0.28 nM	B2
0.27 nM	B3

target: T4, rat TrkA receptor expressed in …; test: cell-based or functional assay; remark: another data set of the same source

% Max Inhibition, pTrkA	IC50 (nM), pTrkA	pTrkA counts per second, NGF +0.1 pM mAb	pTrkA counts per second, NGF +1 pM mAb	pTrkA counts per second, NGF +10 pM mAb	pTrkA counts per second, NGF +100 pM mAb	pTrkA counts per second, NGF +1 nM mAb	pTrkA counts per second, NGF +10 nM mAb	pTrkA counts per second, NGF +100 nM mAb	pTrkA counts per second, NGF +1 uM mAb	Binder
82%	0.57 nM	1.83e+06 counts per second	2.09e+06 counts per second	2.2e+06 counts per second	1.69e+06 counts per second	1.15e+06 counts per second	710000 counts per second	544000 counts per second	580000 counts per second	B1
65%	1.6 nM	3.38e+06 counts per second	3.05e+06 counts per second	3.68e+06 counts per second	2.95e+06 counts per second	2.67e+06 counts per second	1.53e+06 counts per second	1.58e+06 counts per second	1.3e+06 counts per second	B2
42%	0.72 nM	4.79e+06 counts per second	4.86e+06 counts per second	4.46e+06 counts per second	5.16e+06 counts per second	3.3e+06 counts per second	2.87e+06 counts per second	2.34e+06 counts per second	2.99e+06 counts per second	B3

target: T2, recombinant human TrkA protein; test: NGF-blocking ELISA on coated human TrkA, 100 nM btNGF; mAb 2.5 nM
Experimental: as §2

Absorbance 450 nm	Binder
0.21	B1
0.15	B2
0.16	B3

target: T2, recombinant human TrkA protein; test: NGF-blocking ELISA on coated human TrkA, 100 nM btNGF; mAb 0.16 nM
Experimental: as §2

Absorbance 450 nm	Binder
0.87	B1
0.77	B2
0.7	B3

target: T2, recombinant human TrkA protein; test: NGF-blocking ELISA on coated human TrkA, 100 nM btNGF; mAb 5 nM
Experimental: as §2

Absorbance 450 nm	Binder
0.2	B1
0.16	B2
0.15	B3

target: TrkA on rat NEUROSCREEN-1 cells (pheochromocytoma PC12 subclone) (rat, UniProt P35739 33-799); test: cell-based or functional assay
Sequence (P35739 33-799): as above

% Max Stimulation of neurite outgrowth	IC50, inhibition of NGF-induced neurite outgrowth	Binder
7%	0.1 nM	B1
7%	0.06 nM	B2
10%	0.07 nM	B3

target: T2, recombinant human TrkA protein; test: NGF-blocking ELISA on coated human TrkA, 100 nM btNGF; mAb 0.04 nM
Experimental: as §2

Absorbance 450 nm	Binder
1.09	B1
1.03	B2
0.87	B3
